Laboratory results as given in patent US20230312722A1 (NONA BIOSCIENCES SUZHOU, published 2023).

T1: human B7H4 on the cell surface (human, UniProt Q7Z7D3 25-282)
T1 construct: whole, on cells; also called CHOK1/hu B7H4; B7H4 on SK-BR-3
T1 sequence (looked up): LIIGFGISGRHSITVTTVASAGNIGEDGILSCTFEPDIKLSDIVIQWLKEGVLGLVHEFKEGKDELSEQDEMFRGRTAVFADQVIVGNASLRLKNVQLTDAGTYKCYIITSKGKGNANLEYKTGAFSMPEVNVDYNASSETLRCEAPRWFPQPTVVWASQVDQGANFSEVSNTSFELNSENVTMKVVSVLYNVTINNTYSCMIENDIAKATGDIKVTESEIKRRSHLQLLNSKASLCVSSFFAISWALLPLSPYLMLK


Key:
[1] = target: T1, human B7H4 on the cell surface; experiment: FACS on SK-BR-3 cells
Description: (§1) SK-BR-3 cells were digested. T cells were isolated using the human T cell isolation kit (Miltenyi, #130-096-535) as described in the method of the instruction, and resuspended with PBS containing 2% BSA. The cell density was adjusted to 1×10⁶ cells/mL. The cells were seeded in a 96-well V-bottom plate (Corning, #3894) at 100 μL/well, followed by the addition of test antibodies diluted in a 3-fold gradient at a concentration that was 2 times the final concentration, each at 100 μL/well. The cells were incubated at 4° C. for 2 h away from light. Thereafter, the cells in each well were rinsed twice with 100 μL of pre-cooled PBS containing 2% BSA, and centrifuged at 500 g at 4° C. for 5 min, and then the supernatant was discarded. Then each well was added with 100 μL of fluorescent secondary antibody (Alexa Fluor 488-conjugated AffiniPure Goat Anti-Human IgG, Fcγ Fragment Specific, Jackson, #109-545-098, diluted in a 1:500 ratio), and the plate was incubated away from light at 4° C. for 1 h. The cells in each well were washed twice with 100 μL of pre-cooled PBS containing 2% BSA, and centrifuged at 500 g at 4° C. for 5 minutes, and then the supernatant was discarded. Finally, the cells in each well were resuspended with 200 μL of pre-cooled PBS containing 2% BSA, and the fluorescence signal values were read using an ACEA Novocyte3000 flow cytometer.

CD3 on human T cells = CD3 on human T cells (human, UniProt P07766 23-207; P04234 22-171; P09693 23-182); experiment: FACS on human T cells; EC50 printed as n.d., curve still rising at 100 nM
Description: as §1

CD3 on human T cells, sequence (P07766 23-207 limits assumed, chain 1 of 3): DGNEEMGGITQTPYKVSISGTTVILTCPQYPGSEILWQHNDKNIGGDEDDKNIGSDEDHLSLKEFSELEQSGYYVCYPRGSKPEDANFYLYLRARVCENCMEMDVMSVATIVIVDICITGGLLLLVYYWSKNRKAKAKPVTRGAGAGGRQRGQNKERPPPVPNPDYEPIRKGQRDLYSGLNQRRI
CD3 on human T cells, sequence (P04234 22-171 limits assumed, chain 2 of 3): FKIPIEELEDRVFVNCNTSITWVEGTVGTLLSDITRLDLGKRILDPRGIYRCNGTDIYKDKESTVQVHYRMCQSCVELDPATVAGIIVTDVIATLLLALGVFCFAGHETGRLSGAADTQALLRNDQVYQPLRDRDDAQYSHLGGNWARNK
CD3 on human T cells, sequence (P09693 23-182 limits assumed, chain 3 of 3): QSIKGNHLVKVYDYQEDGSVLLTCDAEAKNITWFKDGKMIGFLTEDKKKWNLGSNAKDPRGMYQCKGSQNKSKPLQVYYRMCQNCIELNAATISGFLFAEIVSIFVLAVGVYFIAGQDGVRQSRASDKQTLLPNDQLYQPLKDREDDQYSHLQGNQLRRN

EC50 [1] [nM]	Maximum MFI [1]	Maximum MFI (CD3 on human T cells)	Binder
71.2	214000	–	PR003733 (bispecific antibody, human IgG1, lambda, L234A L235A, B7H4 x CD3, 1+1 Fab-Fc-scFv: CD3 Fab from PR001848 (knob, LALA; strong CD3 end), B7H4 scFv(VL-VH)-Fc (hole, LALA)) light: QAVVTQEPSLTVSPGGTVTLTCRSSTGAVTTSNYANWVQQKPGQAPRGLIGGTNKRAPWTPARFSGSLLGDKAALTLLGAQPEDEAEYFCALWYSNLWVFGGGTKLTVLGQPKAAPSVTLFPPSSEELQANKATLVCLISDFYPGAVTVAWKADSSPVKAGVETTTPSKQSNNKYAASSYLSLTPEQWKSHRSYSCQVTHEGSTVEKTVAPTECS heavy: not shown EIVMTQSPASLSVSPGERATLSCRASQSVSSNLAWYQQKPGQAPRLLIYGASTRATGIPARVSGGGSGTEFTLTISSLQSEDFAVYYCQQYKNWPFTFGPGTKLEIKGGGGSGGGGSGGGGSGGGGSQVQLVQSGAEVKKPGSSMRVSCKASEDTFSSYAISWVRQAPGQGLEWMGGTAPIFGTTNYAQKFQGRVTITADKSTSTAYMELSSLRSEDTAVYYCARGGPYFDYWGQGTLVTVSSASEPKSSDKTHTCPPCPAPEAAGGPSVFLFPPKPKDTLMISRTPEVTCVVVDVSHEDPEVKFNWYVDGVEVHNAKTKPREEQYNSTYRVVSVLTVLHQDWLNGKEYKCKVSNKALPAPIEKTISKAKGQPREPQVCTLPPSREEMTKNQVSLSCAVKGFYPSDIAVEWESNGQPENNYKTTPPVLDSDGSFFLVSKLTVDKSRWQQGNVFSCSVMHEALHNHYTQKSLSLSPGK
0.933	146000	121000	PR002849 (bispecific antibody, human IgG1, kappa, L234A L235A, B7H4 x CD3, 1+1 Fab-Fc-scFv (structure 1): B7H4 Fab from PR001476 (hole, AAG), CD3 scFv(VL-VH)-Fc from PR000627 (knob, AAG)) light: not shown heavy: not shown QAVVTQEPSLTVSPGGTVTLTCRSSTGAVTTSNYANWVQQKPGQAPRGLIGGTNKRAPWTPARFSGSLLGDKAALTLLGAQPEDEAEYFCALWYSNLWVFGGGTKLTVLGGGQSGQGGSGGGGSEVQLVESGGGLVQPGGSLKLSCAASGFTFNTYAMNWVRQASGKGLEWVGRIRSKYNNYATYYADSVKDRFTISRDDSKSTLYLQMNSLKTEDTAVYYCVRHGNFGNSYVSWFAYWGQGTLVTVSSASEPKSSDKTHTCPPCPAPEAAGGPSVFLFPPKPKDTLMISRTPEVTCVVVDVSHEDPEVKFNWYVDGVEVHNAKTKPREEQYNSTYRVVSVLTVLHQDWLNGKEYKCKVSNKALGAPIEKTISKAKGQPREPQVYTLPPCREEMTKNQVSLWCLVKGFYPSDIAVEWESNGQPENNYKTTPPVLDSDGSFFLYSKLTVDKSRWQQGNVFSCSVMHEALHNHYTQKSLSLSPGK
–	–	125000	PR002851 (bispecific antibody, human IgG1, kappa, L234A L235A, B7H4 x CD3, 1+1 Fab-Fc-scFv (structure 1): B7H4 Fab from PR002408, CD3 scFv-Fc from PR000627) light: not shown heavy: not shown QAVVTQEPSLTVSPGGTVTLTCRSSTGAVTTSNYANWVQQKPGQAPRGLIGGTNKRAPWTPARFSGSLLGDKAALTLLGAQPEDEAEYFCALWYSNLWVFGGGTKLTVLGGGQSGQGGSGGGGSEVQLVESGGGLVQPGGSLKLSCAASGFTFNTYAMNWVRQASGKGLEWVGRIRSKYNNYATYYADSVKDRFTISRDDSKSTLYLQMNSLKTEDTAVYYCVRHGNFGNSYVSWFAYWGQGTLVTVSSASEPKSSDKTHTCPPCPAPEAAGGPSVFLFPPKPKDTLMISRTPEVTCVVVDVSHEDPEVKFNWYVDGVEVHNAKTKPREEQYNSTYRVVSVLTVLHQDWLNGKEYKCKVSNKALGAPIEKTISKAKGQPREPQVYTLPPCREEMTKNQVSLWCLVKGFYPSDIAVEWESNGQPENNYKTTPPVLDSDGSFFLYSKLTVDKSRWQQGNVFSCSVMHEALHNHYTQKSLSLSPGK
0.676	179000	133000	PR002850 (bispecific antibody, human IgG1, kappa, L234A L235A, B7H4 x CD3, 1+1 Fab-Fc-scFv (structure 1): B7H4 Fab from PR002405, CD3 scFv-Fc from PR000627) light: not shown heavy: not shown QAVVTQEPSLTVSPGGTVTLTCRSSTGAVTTSNYANWVQQKPGQAPRGLIGGTNKRAPWTPARFSGSLLGDKAALTLLGAQPEDEAEYFCALWYSNLWVFGGGTKLTVLGGGQSGQGGSGGGGSEVQLVESGGGLVQPGGSLKLSCAASGFTFNTYAMNWVRQASGKGLEWVGRIRSKYNNYATYYADSVKDRFTISRDDSKSTLYLQMNSLKTEDTAVYYCVRHGNFGNSYVSWFAYWGQGTLVTVSSASEPKSSDKTHTCPPCPAPEAAGGPSVFLFPPKPKDTLMISRTPEVTCVVVDVSHEDPEVKFNWYVDGVEVHNAKTKPREEQYNSTYRVVSVLTVLHQDWLNGKEYKCKVSNKALGAPIEKTISKAKGQPREPQVYTLPPCREEMTKNQVSLWCLVKGFYPSDIAVEWESNGQPENNYKTTPPVLDSDGSFFLYSKLTVDKSRWQQGNVFSCSVMHEALHNHYTQKSLSLSPGK
4.05	179000	197000	PR002855 (bispecific antibody, human IgG1, kappa, lambda, L234A L235A, B7H4 x CD3, 1+1 Fab-Fc-crossFab (structure 4): CD3 Fab(cross Fd/LC) from PR001924 (chains 1 and 2), B7H4 Fab from PR001476 (chains 3 and 4)) chain 1: EVQLLESGGGLVQPGGSLRLSCAASGFTFSTYAMNWVRQAPGKGLEWVSRIRSKYNNYATYYADSVKDRFTISRDDSKSTLYLQMNSLRAEDTAVYYCVRHGNFGNSYVSWFAYWGQGTLVTVSSASTKGPSVFPLAPSSKSTSGGTAALGCLVKDYFPEPVTVSWNSGALTSGVHTFPAVLQSSGLYSLSSVVTVPSSSLGTQTYICNVNHKPSNTKVDKKVEPKSC chain 2: QAVVTQEPSLTVSPGGTVTLTCRSSTGAVTTSNYANWVQQKPGQAPRGLIGGTNKRAPWTPARFSGSLLGDKAALTLLGAQPEDEAEYFCALWYSNLWVFGGGTKLTVLGQPKAAPSVTLFPPSSEELQANKATLVCLISDFYPGAVTVAWKADSSPVKAGVETTTPSKQSNNKYAASSYLSLTPEQWKSHRSYSCQVTHEGSTVEKTVAPTECSDKTHTCPPCPAPEAAGGPSVFLFPPKPKDTLMISRTPEVTCVVVDVSHEDPEVKFNWYVDGVEVHNAKTKPREEQYNSTYRVVSVLTVLHQDWLNGKEYKCKVSNKALGAPIEKTISKAKGQPREPQVYTLPPCREEMTKNQVSLWCLVKGFYPSDIAVEWESNGQPENNYKTTPPVLDSDGSFFLYSKLTVDKSRWQQGNVFSCSVMHEALHNHYTQKSLSLSPGK heavy: not shown light: not shown
0.145	193000	73600	PR002987 (bispecific antibody, human IgG1, kappa, lambda, L234A L235A, B7H4 x CD3, 2+1 asymmetric structure (structure 5): CD3 end from PR001924, two B7H4 Fabs from PR001476) chain 1: EVQLLESGGGLVQPGGSLRLSCAASGFTFSTYAMNWVRQAPGKGLEWVSRIRSKYNNYATYYADSVKDRFTISRDDSKSTLYLQMNSLRAEDTAVYYCVRHGNFGNSYVSWFAYWGQGTLVTVSSASTKGPSVFPLAPSSKSTSGGTAALGCLVKDYFPEPVTVSWNSGALTSGVHTFPAVLQSSGLYSLSSVVTVPSSSLGTQTYICNVNHKPSNTKVDKKVEPKSC chain 2: not shown heavy: not shown light: not shown
–	–	187000	PR002857 (bispecific antibody, human IgG1, kappa, lambda, L234A L235A, B7H4 x CD3, 1+1 Fab-Fc-crossFab (structure 4): CD3 crossFab from PR001924, B7H4 Fab from PR002408) chain 1: EVQLLESGGGLVQPGGSLRLSCAASGFTFSTYAMNWVRQAPGKGLEWVSRIRSKYNNYATYYADSVKDRFTISRDDSKSTLYLQMNSLRAEDTAVYYCVRHGNFGNSYVSWFAYWGQGTLVTVSSASTKGPSVFPLAPSSKSTSGGTAALGCLVKDYFPEPVTVSWNSGALTSGVHTFPAVLQSSGLYSLSSVVTVPSSSLGTQTYICNVNHKPSNTKVDKKVEPKSC chain 2: QAVVTQEPSLTVSPGGTVTLTCRSSTGAVTTSNYANWVQQKPGQAPRGLIGGTNKRAPWTPARFSGSLLGDKAALTLLGAQPEDEAEYFCALWYSNLWVFGGGTKLTVLGQPKAAPSVTLFPPSSEELQANKATLVCLISDFYPGAVTVAWKADSSPVKAGVETTTPSKQSNNKYAASSYLSLTPEQWKSHRSYSCQVTHEGSTVEKTVAPTECSDKTHTCPPCPAPEAAGGPSVFLFPPKPKDTLMISRTPEVTCVVVDVSHEDPEVKFNWYVDGVEVHNAKTKPREEQYNSTYRVVSVLTVLHQDWLNGKEYKCKVSNKALGAPIEKTISKAKGQPREPQVYTLPPCREEMTKNQVSLWCLVKGFYPSDIAVEWESNGQPENNYKTTPPVLDSDGSFFLYSKLTVDKSRWQQGNVFSCSVMHEALHNHYTQKSLSLSPGK heavy: not shown light: not shown
1.32	212000	189000	PR002856 (bispecific antibody, human IgG1, kappa, lambda, L234A L235A, B7H4 x CD3, 1+1 Fab-Fc-crossFab (structure 4): CD3 crossFab from PR001924, B7H4 Fab from PR002405) chain 1: EVQLLESGGGLVQPGGSLRLSCAASGFTFSTYAMNWVRQAPGKGLEWVSRIRSKYNNYATYYADSVKDRFTISRDDSKSTLYLQMNSLRAEDTAVYYCVRHGNFGNSYVSWFAYWGQGTLVTVSSASTKGPSVFPLAPSSKSTSGGTAALGCLVKDYFPEPVTVSWNSGALTSGVHTFPAVLQSSGLYSLSSVVTVPSSSLGTQTYICNVNHKPSNTKVDKKVEPKSC chain 2: QAVVTQEPSLTVSPGGTVTLTCRSSTGAVTTSNYANWVQQKPGQAPRGLIGGTNKRAPWTPARFSGSLLGDKAALTLLGAQPEDEAEYFCALWYSNLWVFGGGTKLTVLGQPKAAPSVTLFPPSSEELQANKATLVCLISDFYPGAVTVAWKADSSPVKAGVETTTPSKQSNNKYAASSYLSLTPEQWKSHRSYSCQVTHEGSTVEKTVAPTECSDKTHTCPPCPAPEAAGGPSVFLFPPKPKDTLMISRTPEVTCVVVDVSHEDPEVKFNWYVDGVEVHNAKTKPREEQYNSTYRVVSVLTVLHQDWLNGKEYKCKVSNKALGAPIEKTISKAKGQPREPQVYTLPPCREEMTKNQVSLWCLVKGFYPSDIAVEWESNGQPENNYKTTPPVLDSDGSFFLYSKLTVDKSRWQQGNVFSCSVMHEALHNHYTQKSLSLSPGK heavy: not shown light: not shown
